In patent publication EP4714974A1:

Legend:
human GPRC5D (human) [1] = biological target: human GPRC5D (human) (UniProt Q9NZD1); assay: flow cytometry on human GPRC5D-CHOK1 cells (negative control)
human GPRC5D (human) [2] = biological target: human GPRC5D (human) (UniProt Q9NZD1); assay: flow cytometry on NCI-H929 cells (negative control)
[3] = biological target: cynomolgus monkey GPRC5D (cynomolgus monkey); assay: flow cytometry on cynomolgus monkey GPRC5D-CHOK1 cells (negative control)
human GPRC5D (human) [4] = biological target: human GPRC5D (human) (UniProt Q9NZD1); assay: flow cytometry on human GPRC5D-CHOK1 cells (negative control); remark: listed apart in the source

human GPRC5D (human), sequence (Q9NZD1 whole entry): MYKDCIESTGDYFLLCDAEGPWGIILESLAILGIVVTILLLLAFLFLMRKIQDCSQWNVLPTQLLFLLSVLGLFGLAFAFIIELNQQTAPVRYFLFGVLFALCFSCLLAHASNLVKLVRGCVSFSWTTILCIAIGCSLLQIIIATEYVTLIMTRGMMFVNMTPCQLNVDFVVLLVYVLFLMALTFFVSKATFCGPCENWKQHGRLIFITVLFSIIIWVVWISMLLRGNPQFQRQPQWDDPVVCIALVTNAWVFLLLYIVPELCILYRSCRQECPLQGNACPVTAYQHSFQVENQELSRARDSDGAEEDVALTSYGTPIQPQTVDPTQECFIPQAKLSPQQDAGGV

Substance: IgG1 AA (negative control, purchased from Biointron, Cat. No. B109802) (antibody)
- Top mean fluorescence intensity (Top MFI) (human GPRC5D (human) [1]): 51 MFI
- Top mean fluorescence intensity (Top MFI) (human GPRC5D (human) [2]): 165 MFI
- Top mean fluorescence intensity (Top MFI) [3]: 2040 MFI
- Top mean fluorescence intensity (Top MFI) (human GPRC5D (human) [4]): 1610 MFI
